For data set [1], the target named is 6xHis-tagged Gifsy-1 prophage repressor GfoR (Salmonella enterica serovar Typhimurium strain ATCC14028, prophage Gifsy-1). In words: SEC; Sephadex G75 column in IPE buffer (Tris-HCl 20 mM pH 8, NaCl 500 mM, Igepal 0.1%, imidazole 250 mM); about 10 ug of Ni-NTA-purified repressor (cells grown without arabinose) or co-expressed, co-purified repressor-antirepressor complex (with arabinose); calibrated with alpha-chymotrypsin, ovalbumin and BSA; fractions on SDS gel.

Data set [2] has as its system T1, GtgR (Gifsy-2 phage repressor; also written GftR) (Salmonella enterica ATCC14028, Gifsy-2 prophage), ORF:1b72f8f1.
T1 sequence: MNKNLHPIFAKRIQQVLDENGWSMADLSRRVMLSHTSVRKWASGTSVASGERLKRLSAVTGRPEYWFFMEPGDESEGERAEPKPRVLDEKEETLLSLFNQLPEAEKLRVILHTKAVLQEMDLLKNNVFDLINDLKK
In words: EMSA. The settings on record: 20 mM Tris-HCl pH 7.5, 50 mM NaCl, 0.2 mM EDTA (5x stock in Methods: 1 mM), 1 mM MgCl2, 5% glycerol, PMSF, 50 ug/mL sonicated salmon sperm DNA; room …. Background: A gel shift assay detects complexes by their altered migration in electrophoresis.

For the substance “6xHis-tagged Gifsy-1 prophage repressor GfoR (natural protein)”, in data set [1], the stoichiometry N (commonly the number of molecules, sites or subunits per partner or assembly) amounted to 2.

Turning to “GTTCGCCGATGCTCATTTGAGTCATGTGGTTACTGATTTTGATTTTTAATTGGTTGTCCATTTGGCTCTCCAGTTCTACGAGTTGGTAGCTGGAGATTATCACGTAAAACTTTAGGTTCCAACAAAAATCAATCTAATAGTTCCAATGAATAAAGAAACTGAAGGTTGTAAAATGTGAATATGAACAAAAATCTTCATCCCATTTTCGCCAAGCGTATCCAGCAAGTTCTGGATGAGAACGGCTGGTCTATGGCTGACCTCTCACGG (double strand) [Gifsy-2 right operator fragment (267 bp)]”, the binding result in data set [2] is “binds”.

Consider “3xFLAG-tagged Gifsy-1 antirepressor GfoA (natural protein)”, for which the stoichiometry N (GfoA per GfoR (2:2)) in data set [1] worked out at 1.

These data come from publication PMC3121763.
